{
  "source": "paper PMC11581024",
  "about": "(bioRxiv, 2024)",
  "target": "the molecule itself",
  "experiment": "SEC-MALS",
  "data": [
    {"protein": "Treponema denticola ComFB (natural protein) MIIHNVMEDLVYTEVNKLFDEAEEKKESWLTCSCMQCRVDTMCYVLNRVKPRYIKSGRGLAHFLKFEKTEKVQIMADITSLVIEGMHRVLSTKRPHDHEPIFETENTPVFNFPAITGNILNGSNFRPMEDATISLKMNGELVSQMSILWDNPYTISEKTPGAYTFCPKAIPAKNAGDKEKFIFVLKAEKEGFDPTNFSFDIELTAEDMVKSPLDSSNFYQIKNLFLCEHSEEE", "values": [
      {"measurement": "stoichiometry N", "result": 2}
    ]}
  ]
}
